# Measured values as given in the supplement of paper PMC7125110.
# ± gives the standard error. Variants at the floor of the assay were thinned out.
# B1: glmS ribozyme (parent)
# chain: AUAAAAGCGCCAGAACUACAGAAAUGUAGUUGACGAGGAGGAGGUUUAUCGAAUUUUCGGCGGAUGCCUCCAAA
# Tests used:
# Conditions in all cases: with glucosamine-6-phosphate
# glucosamine-6-phosphate [1] = variants of: B1; assay: self-cleavage kobs at 40 uM GlcN6P; higher = faster cleavage; RNA array
# Summary of the method: (§1)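 Barcoded glmS ribozyme variants on sequenced MiSeq chips were transcribed in situ by E. coli RNA polymerase and tracked through a hybridised Cy3 probe at 37 °C. Glucosamine-6-phosphate (40 μM to 10 mM) in HEPES/KCl/Mg(OAc)2 buffer was flowed in, and tiles were imaged over ~14 h. Signals were normalised to baseline and to non-cleaving reference variants; per-tile medians were fit to one- or two-exponential decays to give kobs. kcat and KM came from weighted Michaelis–Menten fits across concentrations.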
# glucosamine-6-phosphate [2] = variants of: B1; assay: self-cleavage kobs at 10000 uM GlcN6P; higher = faster cleavage; RNA array
# Summary of the method: as §1
# glucosamine-6-phosphate [3] = variants of: B1; assay: self-cleavage kobs at 2500 uM GlcN6P; higher = faster cleavage; RNA array
# Summary of the method: as §1
# glucosamine-6-phosphate [4] = variants of: B1; assay: self-cleavage kobs at 160 uM GlcN6P; higher = faster cleavage; RNA array
# Summary of the method: as §1
# glucosamine-6-phosphate [5] = variants of: B1; assay: self-cleavage kobs at 640 uM GlcN6P; higher = faster cleavage; RNA array
# Summary of the method: as §1
Variant,self-cleavage kobs at 40 uM GlcN6P (glucosamine-6-phosphate [1]) [s⁻¹],self-cleavage kobs at 10000 uM GlcN6P (glucosamine-6-phosphate [2]) [s⁻¹],self-cleavage kobs at 2500 uM GlcN6P (glucosamine-6-phosphate [3]) [s⁻¹],self-cleavage kobs at 160 uM GlcN6P (glucosamine-6-phosphate [4]) [s⁻¹],self-cleavage kobs at 640 uM GlcN6P (glucosamine-6-phosphate [5]) [s⁻¹]
A36G G38C U55A,< 1e-05,< 1e-05,,,
G35A U49G C71A,< 1e-05,< 1e-05,,,
G38U C70U C71G,8.76e-05 ± 2.7e-05,,,,
A33G A39U G41C,< 1e-05,< 1e-05,,,
A36C C50G C70U,0.000435 ± 0.00014,0.000831 ± 0.00026,0.00027 ± 0.0001,,
G35A A39G U57C,< 1e-05,< 1e-05,< 1e-05,,
G32C G35A G51U,< 1e-05,< 1e-05,< 1e-05,,
A36U G51A,< 1e-05,< 1e-05,,< 1e-05,
G32U G41C,< 1e-05,,,< 1e-05,
G40A U47A A53U,6.84e-05 ± 2.5e-05,,0.000618 ± 0.00018,,
A36U C58G C70A,8.19e-05 ± 2.5e-05,5.18e-05 ± 1.5e-05,4.59e-05 ± 2.3e-05,0.000111 ± 3.1e-05,
G38U U57G C67U C70U,8e-05 ± 2.6e-05,4.29e-05 ± 1.9e-05,0.0013 ± 0.00059,,0.000114 ± 4.7e-05
C34G U47G C68G,0.000102 ± 2.7e-05,7.34e-05 ± 1.5e-05,7.01e-05 ± 2.4e-05,0.000631 ± 0.00031,8.76e-05 ± 2.5e-05
C34A U65A,< 1e-05,< 1e-05,< 1e-05,,
G38C U55G,< 1e-05,< 1e-05,< 1e-05,< 1e-05,< 1e-05
A36G U57A,< 1e-05,< 1e-05,< 1e-05,< 1e-05,< 1e-05
G38U A64G,< 1e-05,,< 1e-05,,
G38U A64C,< 1e-05,< 1e-05,< 1e-05,< 1e-05,
G37C G44U U46G C71G,< 1e-05,,,,
A33U U56A C71A,< 1e-05,,,,
G37U A53U U55A,< 1e-05,,,,
C34A G37C A48C,< 1e-05,< 1e-05,,,
A36C G41C U69A,< 1e-05,,,,
A36C G41A C68A,< 1e-05,< 1e-05,< 1e-05,,< 1e-05
G40A G41C A48C C68A C70U,< 1e-05,< 1e-05,,,
G38U U57G C68A U69A,6.8e-05 ± 3e-05,5.25e-05 ± 2e-05,,,

Variant,self-cleavage kobs at 40 uM GlcN6P (glucosamine-6-phosphate [1]) [s⁻¹],self-cleavage kobs at 10000 uM GlcN6P (glucosamine-6-phosphate [2]) [s⁻¹],self-cleavage kobs at 2500 uM GlcN6P (glucosamine-6-phosphate [3]) [s⁻¹],self-cleavage kobs at 160 uM GlcN6P (glucosamine-6-phosphate [4]) [s⁻¹],self-cleavage kobs at 640 uM GlcN6P (glucosamine-6-phosphate [5]) [s⁻¹]
A36C A52U,< 1e-05,< 1e-05,,,
G37C G63A,< 1e-05,< 1e-05,< 1e-05,,< 1e-05
C34U C50G A53U C68G,8.23e-05 ± 1.6e-05,0.000111 ± 1.6e-05,,,0.000541 ± 0.00016
G35C U49C,< 1e-05,,,,< 1e-05
G35C C71G,< 1e-05,,,< 1e-05,< 1e-05
C34G U45G C70A,< 1e-05,< 1e-05,< 1e-05,< 1e-05,
G38U G43C A64U,< 1e-05,,< 1e-05,,
G35U U45A G63C C71G,< 1e-05,< 1e-05,< 1e-05,,
A36G A39U C68U,< 1e-05,< 1e-05,,,
G35C G51A C68U,< 1e-05,,,,
G40A C61A,< 1e-05,,,< 1e-05,< 1e-05
A36U G40A,< 1e-05,< 1e-05,,,
A36G U45C U56A,< 1e-05,,,,
A36C G66A,< 1e-05,< 1e-05,,,
A36C A39C C58U C61A C71A,< 1e-05,,,,
G38A C50U A53G G62U,< 1e-05,,,,
G35C G38U C50G C68A C70A,0.000136 ± 3.2e-05,0.000258 ± 3.9e-05,,,
G32U A53G A64U,< 1e-05,,,,
G37C U45C,< 1e-05,,,< 1e-05,
A33U A48G A52U,< 1e-05,,,,
G38C G44U,< 1e-05,< 1e-05,< 1e-05,< 1e-05,< 1e-05
A33C C34G C71U,< 1e-05,,< 1e-05,,
C34G A64U,< 1e-05,< 1e-05,< 1e-05,< 1e-05,< 1e-05
C34U G37C G51A C68A,< 1e-05,,,,
A36U G44C U47G,< 1e-05,< 1e-05,,,
A33U A42U U65G,< 1e-05,< 1e-05,,,
